System: new blood vessels in Matrigel plugs
Test: In vivo Matrigel plug assay
Set-up: species or system C57/BL6 mice
Settings: for inhibition of neovascularization / average number of vessels per high power field: Tumstatin-N53 5 μg/ml, T1 and T3 peptide 10 μg/ml; for average number of vessels per high power field: control 8.81±0.35; for number of blood vessels per plug: 2 or 20 μg/ml insoluble protein, 50 ng/ml VEGF, vs PBS; for number of blood vessels per plug / reduction in the number of blood vessels: 14 days; for reduction of new blood vessels: 6 days, 5 μg/ml, relative to PBS control
Protocol: The matrigel assay was also conducted in vivo in C57/BL6 mice. Matrigel was thawed overnight at 4° C. It was then mixed with 20 U/ml of heparin (Pierce Chemical Co., Rockford, Ill., USA), 150 ng/ml of bFGF (R&D Systems, Minneapolis, Minn., USA), and either 1 μg/ml of Arresten or 10 μg/ml of endostatin. The matrigel mixture was injected subcutaneously using a 21 g needle. Control groups received the same mixture, but with no angiogenic inhibitor. After 14 days, mice were sacrificed and the matrigel plugs removed. The matrigel plugs were fixed in 4% paraformaldehyde in PBS for 4 hours at room temperature, then switched to PBS for 24 hours. The plugs were embedded in paraffin, sectioned, and H&E stained. Sections were examined by light microscopy and the number of blood vessels from 10 high-power fields were counted and averaged.
To evaluate the in vivo effect of Tumstatin on the formation of new capillaries, a Matrigel plug assay was performed (Passaniti, A. et al., 1992, Lab. Invest. 67:519-29). Five- to six-week-old male C57/BL6 mice (Jackson Laboratories, Bar Harbor, Me., USA) were obtained. Matrigel (Collaborative Biomedical Prods.) was thawed overnight at 4° C. Before injection into C57/BL6 mice, it was mixed with 20 U/ml of heparin (Pierce Chemical Co., Rockford, Ill., USA), 150 ng/ml of bFGF (R&D Sys., Minneapolis, Minn., USA), and […] of Tumstatin. Control groups received no angiogenic inhibitor. The Matrigel mixture was injected sub-cutaneously using a 21 gauge needle. After 14 days, mice were sacrificed and the Matrigel plugs were removed. Matrigel plugs were fixed in 4% para-formaldehyde (in PBS) for 4 hours at room temperature, then switched to PBS for 24 hours. The plugs were embedded in paraffin, sectioned, and H & E stained. Sections were examined by light microscopy and the number of blood vessels from 10 high power fields were counted and averaged. All sections were coded and observed by a pathologist who was unaware of the study protocols.
Anti-angiogenic activity was measured by the in vivo Matrigel plug assay, in which 0.5 ml of Matrigel containing either 2 μg/ml or 20 μg/ml insoluble protein, 50 ng/ml VEGF, and 20 U/ml heparin was injected simultaneously into both flanks of C57/1BL6 mice. The plugs remained in the mice for 14 days, when the mice were sacrificed and the plugs resected and fixed. The plugs were embedded, sectioned and H&E stained. Samples were blinded and the blood vessels quantitated. No difference in the number of blood vessels was found between the two concentrations of protein, so all six counts were averaged and plotted.
To evaluate the in vivo effect of Tumstatin-44-131 of the formation of new capillaries, a Matrigel plug assay was performed. After 6 days of treatment, the number of new blood formed was reduced 91% upon treatment with 5 μg/ml E. Coli-expressed Tumstatin-44-131, relative to the PBS-treated control. Tum-1, which lacks the N-terminal 53 amino acids of full-length Tumstatin, was also tested, and reduced neovascularization by 95%. The average (over 3-4 Matrigel plugs) number of vessels was 0.47.+−.0.16 for Tum-1-treated plugs, 0.80.+−.0.16 for Tumstatin-44-131-treated plugs, and 8.81.+−.0.35 for PBS-treated controls.
To evaluate the in vivo effect of T3 on the formation of new capillaries, a matrigel plug assay was performed with Tumstatin-N53 (5 μg/ml), T1 and T3 peptide (10 μg/ml). The number of blood vessels from 4-7 high power fields were counted and averaged. The average number of vessels per high power field after treatment with Tumstatin-N53 was 0.47±0.16, 7.41±0.54 for T1 peptide, and 0.33±0.16 for T3 peptide. Control treatment produced 8.81±0.35 vessels per field, on average.

Molecule: GLKGKRGDSGSPATWTTRGF [T1]
- inhibition of neovascularization: no significant reduction
- average number of vessels per high power field: 7.41±0.54

Molecule: LQRFTTMPFLFCNVNDVCNF [T3]
- inhibition of neovascularization: 96%
- average number of vessels per high power field: 0.33±0.16

B1: Canstatin: NC1 domain of the α2 chain of Type IV collagen (SEQ ID NO:6) (protein, listed as Homo sapiens)
chain: VSIGYLLVKHSQTDQEPMCPVGMNKLWSGYSLLYFEGQEKAHNQDLGLAGSCLARFSTMPFLYCNPGDVCYYASRNDKSYWLSTTAPLPMMPVAEDEIKPYISRCSVCEAPAIAIAVHSQDVSIPHCPAGWRSLWIGYSFLMHTAAGDEGGGQSLVSPGSCLEDFRATPFIECNGGRGTCHYYANKYSFWLTTIPEQSFQGSPSADTLKAGLIRTHISRCQVCMKNL
- number of blood vessels per plug: significantly fewer blood vessels

B2: endostatin: tumor associated angiogenesis inhibitor used as comparator (protein, UniProt P39060 1572-1754, looked up)
Endostatin: HSHRDFQPVLHLVALNSPLSGGMRGIRGADFQCFQQARAVGLAGTFRAFLSSRLQDLYSIVRRADRAAVPIVNLKDELLFPSWEALFSGSEGPLKPGARIFSFDGKDVLRHPTWPQKSVWHGSDPNGRRLTESYCETWRTEAPSATGQASSLLGGRLLGQSAASCHHAYIVLCIENSFMTASK
modifications: Endostatin
- reduction in the number of blood vessels (bFGF, 1 μg/ml Arresten, 10 μg/ml endostatin): 50%

B3: Tumstatin: NC1 domain of the α3 chain of type IV collagen, residues 1-244 (SEQ ID NO:10) (protein, listed as Homo sapiens)
chain: GLKGKRGDSGSPATWTTRGFVFTRHSQTTAIPSCPEGTVPLYSGFSFLFVQGNQRAHGQDLGTLGSCLQRFTTMPFLFCNVNDVCNFASRNDYSYWLSTPALMPMNMAPITGRALEPYISRCTVCEGPAIAIAVHSQTTDIPPCPHGWISLWKGFSFIMFTSAGSEGTGQALASPGSCLEEFRASPFLECHGRGTCNYYSNSYSFWLASLNPERMFRKPIPSTVKAGELEKIISRCQVCMKKRH
- number of vessels per high power field (1 mg/ml Tumstatin, control 7.50±2.17): 2.25±1.32
- reduction in the number of blood vessels (bFGF and heparin, 1 mg/ml E. Coli-produced Tumstatin): 67%

B4: Can-1: N-terminal 114 amino acids of full-length Canstatin (protein, listed as Homo sapiens)
chain: VSIGYLLVKHSQTDQEPMCPVGMNKLWSGYSLLYFEGQEKAHNQDLGLAGSCLARFSTMPFLYCNPGDVCYYASRNDKSYWLSTTAPLPMMPVAEDEIKPYISRCSVCEAPAIA
- number of blood vessels per plug: significantly fewer blood vessels

B5: Tumstatin-44-131: residues 44 to 131 of full-length Tumstatin (SEQ ID NO:33) (protein)
chain: FSFLFVQGNQRAHGQDLGTLGSCLQRFTTMPFLFCNVNDVCNFASRNDYSYWLSTPALMPMNMAPITGRALEPYISRCTVCEGPAIAI
modifications: Tumstatin-45-132 (amino acids 45-132 of SEQ ID NO10)
- reduction of new blood vessels: 91%

B6: Tum-1: residues 54 to 244 of Tumstatin, lacking the N-terminal 53 amino acids (SEQ ID NO:22) (protein)
chain: QRAHGQDLGTLGSCLQRFTTMPFLFCNVNDVCNFASRNDYSYWLSTPALMPMNMAPITGRALEPYISRCTVCEGPAIAIAVHSQTTDIPPCPHGWISLWKGFSFIMFTSAGSEGTGQALASPGSCLEEFRASPFLECHGRGTCNYYSNSYSFWLASLNPERMFRKPIPSTVKAGELEKIISRCQVCMKKRH
modifications: Tum-1 (Tumstatin N-53) (amino acids 54-244 of SEQ ID NO10)
- reduction of new blood vessels: 95%
- inhibition of neovascularization: 95%
- average number of vessels per high power field: 0.47±0.16
